Assay: yeast display, Sf9 membrane polyspecificity reagent, FACS + sequencing; frameworks hold sequencing errors
In short: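 Genes from sorted yeast were amplified by colony PCR, read by MiSeq 2 × 250 sequencing and filtered on CDR length. These cells carried a synthetic nanobody library in Saccharomyces cerevisiae BJ5465 and were sorted by FACS into low and high (top ~1%) gates on anti-HA and streptavidin fluorescence. Polyreactivity is labelled according to the gate of origin.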

Sequence | polyreactivity (PSR sort gate)
QVQLVESGGGLVQAGGSLRLSCAASGSTFYNYVMGWYRQAPGKERELVAAISSSGGNTYYADSVKGRFTISRDNAKNTVYLQMNSLKPEDTAVYYCAARERHPSGGKYDYWGQGTQVTVSS | high polyreactivity
QVQLVESGGGLVQAGGSLRLSCAASGSIFEVNAMGLYRQAPGKERELVAAISCSGGSTYYADSVKGRFTISRDNAKNTVYLQMNSLKPEDTAVYYCAADWRQGLWYGYYYWGQGTQVTVSS | low polyreactivity
QVQLVESGGGLVQAGGSLRLSCAASGRTFYPYVMGWYRQAPGKEREFVAAISGTGGTTYYADSVKGRFTISRDNAKTTVYLQMNSLKPEDTAVYYCNRRIPYTSYSYGYWGQGTQVTVSS | high polyreactivity
QVQLVESGGGLVQAGGSLRLSCAASGRTIKYTAMGWYRQAPGKERDLVAAITYSGGSTYYADSVKGRFTISRDNAKNTVYLQMNSLKPEDTAVYYCGQGTQVTVSS | low polyreactivity
QVQLVESGGGLVQAGGSLRLSCAASGITIPVYLGWYRQAPGKETELVAAISSGGSTYADSVKGRFTISRDNAKNTVYLQMNSLKPEDTAVYYCNADRWFGNYLHLTFLNDYWGQGTQVTVSS | low polyreactivity
QVQLVESGAALVQAGGSLRLSCAASGFTFFTYAMGWYRQATGKDSELVAAITSSGGSTYYADSVKGRFTISRDNAKNTVYLQMNSLNPEDTAVYDCAASVYFWYDYWGQGTQGTVSS | high polyreactivity
QVQLVESGGGLVQAGGSLRLSCAASGSIFVFYDMGWYRQAPGKERELVATISSGGGGTYYTDSVKGRFTISRDNAKNTVYLQMNSLKPEDTAVYYCAAEGDKYGKGDGYWGQGPQVTVSS | low polyreactivity
QVQLVESGGGLVHAGGSLRLSCSATRSIFLGNAMGWYRQAPGKERELVAAISRSGGSTYYADSVKGRFTISRDNAKNTVYLQMNSLKPEDTAVYYCAAVVSSRVKQFEYWGQGNQVTVSS | high polyreactivity
QVQLVESGGGLVQAGGSLRLSCAASGFILLDYAMGWYRQAPGKERELVAAISWSGARTYYADSVKGRFTISRDNAKNTVYLQMNSLKPEDTAVYYCAAKGQRGYWWGFDYWGQGTQVTVSS | low polyreactivity
QVQLVESGGGLVQAGGSLRLSCAASGSTFLYYAMGWYRQATGKERELVAAIDSGGSTYYADSVKGRFTISRDNAKNTVYLQMNSLKPEDTAVYYCNADFADHWPPNGPGAHDYWGQGTQVTVSS | low polyreactivity
QVQLVESGGGLVQAGGSLRLSCAASGSIFYQNAMGWYIQAPGKERELVAAITSDGSTYYADSVKGRFTISRDNAKNTVYLQMNSLKPEDTAVYYCAAEYYGHRYDYWGQGTQVTVSS | low polyreactivity
QVQVVESGGGLVQAGGSLRLSCAASGLTFIFNAMGWYRQAPGKERELVADISSGVNTNYADSVKGRFSISRDNEKNTVYLQMNSLKTEDTEVHYCADRLAQTTGYGYWGQGTQVNVSS | low polyreactivity
QDQHVETGGGLVQAGGSLRLSCAASGRTFKFYAMGWYRQAHGKERELVAAITSGGKTNYADSVKGRFTISRDNAKNTVYLQLNSLKPEDTAVYYCKADAGRLSNRYRLWTYGYWGQGTQVTVSS | low polyreactivity
QVQLEESGGGLVQAGGSLRLSCAASGIIFWEYAMGWYRQAPGKERELVAAINARGTRTYYADSVKGRFSISRDNAKNTVYLQMNSLKPEDTAVYYCAADRYGWTRYDSWGQGTQVTVSS | high polyreactivity
QVQLVESGGGLVQAGGSLRLSCAASGLTLEGYVMGWYRQAPGKERELVAAISRRGASTYYADSVKGRFTISRDNAKNTVYLQMNSLKTEDTAVYYCAAYGAYNNYRGQTSLGYGYDSWGQGTQVTVSS | high polyreactivity
QVQLVESGGGLVQAGGSLRLSCAASGSTFPEYGMGWYRQAPGKERELVAAINSRGGNTYYADSVKGRFTISRDNAKKTVYLQMNSLKPEDTAVYYCNRLSSYNMDYWGQGTQVTVSS | high polyreactivity

Sequence | polyreactivity (PSR sort gate)
QVQLQESGGGLVQAGGSLRLSCAASGYISSWYPMGWYRQAPGKEREFVATIAPGATTYYADSVKGRFTISRDYAKNTVYLQMNSLKPEDTAVYFCAAGPENNDFYSYWGQGTQVTVSS | low polyreactivity
QVQLVESGGGLVQAGGSLRLSCAASGSTFCTYAMGWYRQAPGKERELVAAITQRGASTYYADSVKGRFTISRDNAKNTVYLQMNSLKPEDTAVYYCAAYKRGRPEMDYWGQGTQVSVSS | high polyreactivity
QVQLVESGGGLVQAGGSLRLSCAASGSTFGRYAMGWYRQAPGKERELVAAISRGTTTNYADSVKGRFTFSRDIAKNTVYLQMNSLKPVDTAVYYCAAESPSVFDGYAQLYIILEDYWGQGTQVTVSS | low polyreactivity
QVQLVESGGGLVQAGGSLRLSCAASGRIFGYYAMGWYRQAPGKERELVAAISWSGGRTYYADSVKGRFTISRDNAKNTVYLQMNSLKPEDTAVYYCNKVYRVPITEEYDYWGQGTQVTVSS | high polyreactivity
QVQLVESGGGLVQAGGSLRLSCAASGGISAFNSMGWYRQAPGKERELVAAINYRGGTTYYADSVKGRFTISRDNAKNTVYLQMNSLKPEDTAVYYCNKPYYSSTYYYWGQGTQVTVSS | low polyreactivity
QVQLVESGGGLVQAGGSLRLSCAASGRTFKWYAMGWYRQAPGKERELVASISWSGGGTYYADSVKGRFTISRDNAKNTVYLQMNSLKPEDTAVYECAAEYYNWGDYGYDYWGQGTQVTVSS | high polyreactivity
QVQLVESGGGLVQAGGSLRLSCAASGRTFPGYAMGWYRQAPGKERELVAGISYRGGSTYYADSVKGRFTISRDNAKNTVYLQMNSLKPEDTAVYYCNATYGGPYYIQYDYWGQGTQVTVSS | low polyreactivity
QVQLVESGGGLVQAGGSLRLSCAASGRIFKYYAMGWYRQAPGKERELVAAISARGGSTYYADSVKGRFTISRDNAKNTVYFQMNSLKPEDTAVYYCAAPYLTTQYERMYYWGQGTQVTVSS | high polyreactivity
QVQLVESGGGLVQAGGSLRISCAASGSICNINAMGWYRQAPGKERELVAPISQSDGSTYYADSVKGRFTISRDNAKNTVYLQMNSLKPEDTAVYYCSADAYVLFYGDWYEFDYWGQGTQVTVSS | high polyreactivity
QVQLVESGGGLVQAGGSLRLSCAASGSIFSYYAMGWYRQAPGKERELVAAITSGGSTYYSDSVKGRFTISRDNAKNTVYLQMNSLKPEDTAVYYCAREKWPSQYDYWGQGTQVTVSS | low polyreactivity
QVQLVESGGGLVQAGGSLRLSCAASGGTFFVYMGRYRQAPGKERELVAAITGGGGTYYADSVKGRFTISRDNAKNTVYLQMNSLKPEDTAVYYCATRGATSTVPEGDSWGQGTHVTVSS | low polyreactivity
QVQLVESGGGLVQAGGSLRLSCAASGSTFRVYAMGWYRQAPGKERELVAAITRSGGRTHYADSVKGRFTISRDNAKNTVYLQMNSLKPEDTAVYYCAARFYYTKPEDYYWGQGTQVTVSS | high polyreactivity
QVQLVESGGGLVQAGGSLRLSCAASGSTFAANAMGWSRPAPGKERELVAAITSSGGSTYYADSVKGRFTISRDYAKNTVYLQMNSLKPEDTAVYYCNKDIERYVRIYDSWGQGTQVTVSS | low polyreactivity
QVQLVESGGGLVQAGGSLRLSCAASGSTFTGYAMGWYRQAPGKEREFVATITKRGGRTYYADSVKGRFTISRDNAKNTVYLQMNSLKPEDTAVYYCARDQGKLVVPYDYWGQGTQVTVSS | high polyreactivity
QVQLVESGGGLVQAGGSLRLSCAASGGTFSSNAMGWYRQAPGKERELVAAIRSTGRTYYADSVKGRFTISRDNAKNTVYLQMNSLKPEDTAVYYCAADLGRTPTGKIGFDYWGQGTQVTVSS | high polyreactivity
QVQLVESGGGLVQAGGSLRLICAASGSIFRYYAMGWYRQAPGKERELVAVITRSSSTYYADSVKGRFTISRDNAKNTVYLQMNSLKPEDTAVYDCAARYRSGAAGYNYWGQGTQVTVSS | high polyreactivity

Source: the nanobody polyreactivity screen of Harvey et al. (2022)
